The text below walks through data of the supplement of paper PMC12455559.

± gives the standard deviation of the averaged measurements.

A short description of series [1]: melting temperature (DSF); higher = more thermostable. A digest of the protocol: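 Values are melting temperatures from differential scanning fluorimetry. Candidate enzymes were expressed in E. coli C41(DE3), purified on nickel beads and freed by SUMO protease cleavage. In sealed PCR plates on a Bio-Rad CFX96, 45 μL enzyme (0 to 0.3 mg/mL) was combined with 5 μL 5X Sypro Orange. Fluorescence was recorded from 25 °C for 250 cycles, rising 0.3 °C per cycle at a ramp of 0.3 °C/s.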

Series [2] in a line: PET hydrolysis, aromatic products released after 48 h (umol product/mg enzyme); higher = more PET depolymerization activity. A digest of the protocol: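 Sealed plates containing 3.5 mg PET (amorphous film or crystalline powder), 450 μL buffer and 5 μg (50 μL) tagless candidate enzyme were held 48 h at 40 or 60 °C with no shaking. Supernatants were then read at 260 and 280 nm against buffer blanks. The aromatic product detected this way, per mg enzyme, defines PET hydrolysis activity.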

The nature of series [3]: purified protein yield per well (BCA); higher = higher soluble expression. A digest of the protocol:
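Candidate enzymes were expressed in E. coli C41(DE3) in 2 mL autoinduction cultures with 100 µg/mL kanamycin, at 37 °C for 2 h and then 18 °C for 40 h. Cells were lysed, and protein was bound to Ni-charged magnetic beads and released by SUMO protease cleavage on an OT-2 robot. The read-out is purified protein yield per well, measured with the Pierce Rapid Gold BCA kit. Values below 25 ug (0.1 mg/mL) are below the detection threshold.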

[4] abbreviates: substrate: aFilm, 40 °C, pH 4.5.
[5] abbreviates: substrate: aFilm, 40 °C, pH 5.5.
Setting [6] is: substrate: aFilm, 40 °C, pH 6.5.
Where [7] appears, read: substrate: aFilm, 40 °C, pH 7.5.
The mark [8] stands for this setting: substrate: aFilm, 60 °C, pH 4.5.
Setting [9] is: substrate: aFilm, 60 °C, pH 5.5.
Where [10] appears, read: substrate: aFilm, 60 °C, pH 6.5.
Setting [11] is: substrate: aFilm, 60 °C, pH 7.5.
Setting [12] is: substrate: cryPow, 40 °C, pH 4.5.
Setting [13] is: substrate: cryPow, 40 °C, pH 5.5.
Where [14] appears, read: substrate: cryPow, 40 °C, pH 6.5.
Setting [15] is: substrate: cryPow, 40 °C, pH 7.5.
The mark [16] stands for this setting: substrate: cryPow, 60 °C, pH 4.5.
The mark [17] stands for this setting: substrate: cryPow, 60 °C, pH 5.5.
Where [18] appears, read: substrate: cryPow, 60 °C, pH 6.5.
[19] abbreviates: substrate: cryPow, 60 °C, pH 7.5.

On to “ADNPYQRGPDPTPASVGASRGTFATAQVSVPAGNGFGGGVIYYPTDTSQGRFGAVAVVPGYTATWAAEGAWMGPWLASFGFVVIGIDTNSRNDWDTARGTQLLAALDYLTQRSSVRDRVDASRAAVMGHSMGGGGAIYAALQRPSLKTTVGLAPFSASQTLNNMRVPTMLLAGQNDGTTTPASIRNYYGQVPSGVEKAYLELTGAGHGFPTSNNPTMMRNVIPWLKIFVDSDTRYTQFLCPLSNTNGIRSYESTCPLVPSPVPTDPPTSAPPTSTPPTTPPPTTPPPTTPAPGGPCAASYRTVNSWSGGFQGEVTVRAGGAPINGWTVRWTLGGGQSISQVWNGTLSTSGSTATVRNAPYNGSLPASGSTTFGFIANGSPSAPTLTCASP [TEP013]”, for which the melting temperature in series [1] came to 64 C. Besides, the PET hydrolysis in series [2] (setting [4]), in series [2] (setting [5]), in series [2] (setting [6]), in series [2] (setting [7]), in series [2] (setting [8]) and in series [2] (setting [9]) was less than 3 in each case. Further, the PET hydrolysis in series [2] (setting [10]) was less than 3; in series [2] (setting [11]), less than 3; in series [2] (setting [12]), less than 3; in series [2] (setting [13]), 5.5 ± 0.71; in series [2] (setting [14]), 27 ± 1.4; in series [2] (setting [15]), 53.5 ± 2.1. In addition, the PET hydrolysis was less than 3 in series [2] (setting [16]), less than 3 in series [2] (setting [17]), 6 ± 1.4 in series [2] (setting [18]) and 10 ± 1.4 in series [2] (setting [19]). Besides, the “purified protein yield per well” value in series [3] was 176 µg.
Regarding “ADNPYQRGPDPTPASVSANRGTFATAQISVPAGNGFGGGVIYHPTDTSQGTFGAIAVVPGYTATWAAEGAWMGHWLASFGFVVIGIDTNSRNDWDTARGTQLLAALDYLTQRSPVRDRVDANRTAVMGHSMGGGGAMHAALQRPSLKAAIGLAPFSPSQNLTTTRVPTMLLAGQSDTTTTPASILNLYNGIPAATEKAYLELTGAGHGFPTSNNPTMMRNVIPWLKIFVDSDTRYTQFLCSLSNWDGIRAYQSTCPLVPSPVPTTTSTTSTTTTISTTTTTPAPGDACSATYRTTNSWPGGYQAEVTVTAGNTAVNGWNVQWTLGSGQTVTQVWNGTLNVSGSTASVRNASYNGSLQANTSTTFGFIGGGTPPTSSLSCTSP [ESM035]”, the melting temperature in series [1] worked out at 57.4 C. For the same sequence, the PET hydrolysis in series [2] (setting [4]), in series [2] (setting [5]), in series [2] (setting [6]), in series [2] (setting [7]), in series [2] (setting [8]) and in series [2] (setting [9]) was less than 3 throughout. For the same sequence, the PET hydrolysis is less than 3 in series [2] (setting [10]); less than 3 in series [2] (setting [11]); less than 3 in series [2] (setting [12]); less than 3 in series [2] (setting [13]); 7 ± 2.8 in series [2] (setting [14]); 23.5 ± 0.71 in series [2] (setting [15]). The PET hydrolysis in series [2] (setting [16]), in series [2] (setting [17]), in series [2] (setting [18]) and in series [2] (setting [19]) was less than 3 throughout. Besides, the “purified protein yield per well” value in series [3] was determined as 510 µg.
Regarding “ADNPYQRGPDPTPQSISAPTGPFATASVTVPRQGNFGGGVIYYPTDTSQGTFGAVAISPGLNGTWPGIAWLGPRLSSQGFVVFGIDTLGLSDSTASRGSQLLAALDYLTQTSSVRTRVDSSRLAVAGHSMGGGGAFEAALRRPALKAAIPNAPFFPGSASNVRVPTLITAMQNDSLVGQNRNAYNGIPAGVEKAYVELAGAGHNQIGQPTTAIARNWIPWLKIFVDSDARYHQFLCPTTDMSGLSQYLNTCPLISTTPPTSSPSAQPTTPGPTGPPPGGACAATYRTVNSWSDGYQGEMTVQAGSSAINGWTVRWTMSGGQTISQVWNGTLVAGSGAAAVRNVAYNGSLAAGASTTFGFISSGTPSATSITCGSP [ESM081]”, the melting temperature in series [1] worked out at 68.2 C. For the same sequence, the PET hydrolysis amounted to 4 in series [2] (setting [12]), 17 in series [2] (setting [13]), 45 in series [2] (setting [14]) and 82 in series [2] (setting [15]). Moreover, the “purified protein yield per well” value in series [3] was determined as 182 µg.
Turning to “ADNPYQRGPDPTPQSISATTGPFATASVTVPRQGNFGGGVIYYPTDTSQGTFGAVAISPGLNGTWPGIAWLGPRLSSQGFVVFGIDTLGLNDSTASRGSQLLAALDYLTQTSSVRTRVDASRLAVAGHSMGGGGAFEAVLRRPTLKASIPNAPFFPGSAANVRVPTLITAMQNDSLVGQNRNAYNGIPAGVEKAYIELAGAGHNQIGQPTTAIARNWIPWLKIFVDNDARYHQFFCPTTNMSGLSQYLNTCPLTSATPPTSSPSAGPTTPGPTGPPPGGACAATYQTVNTWSGGYQGEMTVRAGNSAINGWTVRWTMGGGQISQVWNGTLVTGSGAAAVRNAPYNGALAAGATTTFGFISSGTPSATSLTCATP [ESM064]”, in series [1], the melting temperature stood at 63.1 C. The PET hydrolysis in series [2] (setting [12]) is less than 3; in series [2] (setting [13]) it was 11; in series [2] (setting [14]) it was 10; in series [2] (setting [15]), 74. Moreover, in series [3], the “purified protein yield per well” value came to 164 µg.
With “ADNPYQRGPDPTPTSVTAVNGPFANTSVAVPTGYGFNGGRIYYPTDTSQGTFGAIAISPGYTALFSAELAWMGPWLASHGFVVIGIETNSRNDFDTARGTQLLAALDYLTQQSPVRDRVDPNRLAVAGHSMGGGGALSAATRRSSLKAAVGIAPYSPSSNLANDRVPTMIFAGQADTVVTPSYASGLYNSLPATTESVYLEVAGADHGFMVGRSNPVMVRTMLPFVKMFIDNDTRYSQFLCPLMDSSGVVTSRSTCPLLPSDPTTPTPTPTTPDPTPTVPPGSASEIVGTQSGRCIDVPNASRTNGTRVQLYNCNRQTNQAWTYTSNKQLQVYGTMCLDAAGSGNGAAVQIYSCHSGTNQQWNVNSNGTISGVQSGRCLDVWSTSNGAQVQLYDCHGQTNQQFRLAPLG [ESM132]”, the melting temperature in series [1] worked out at 56.2 C. Also, the PET hydrolysis is less than 3 in series [2] (setting [12]); 5 in series [2] (setting [13]); less than 3 in series [2] (setting [14]); less than 3 in series [2] (setting [15]); less than 3 in series [2] (setting [16]); less than 3 in series [2] (setting [17]). The PET hydrolysis in series [2] (setting [18]) and in series [2] (setting [19]) was less than 3 throughout. The “purified protein yield per well” value in series [3] turned out to be 144 µg.
On to “ADNPYQRGPDPTQSSVSASRGTFATAQVGVPAGNGFGGGVIYHPTDTSQGTFGAVAIVPGYTATWAAEGAWMGHWLASFGFVVIGIDTNNRNDWDTARGTQLLAALDYLTQRSSVRDRVDPSRTAVMGHSMGGGGAMYAALQRPSLKTAVGLAPFSPSQNLTTTRVPTMLLSGQNDTTTTPASIVNLYNGIPSSVEKAYLELTGAGHGFPTSNNSTMMRNVIPWLKIFVDSDTRYTQFLCPLSDSNGIRTYQNTCPLVPSPVPTTTSTTSSTSTTTTSTTTTTTTSVPVGACSATYRTTNAWSGGYQGEVTVAAGDSAVNGWTVRWTLDSGQTISQVWNGTLSATGSAVSVRNASYNGSLRPGTSTTFGFIAGGAPSTPVLSCTSP [DP072]”, for which, in series [1], the melting temperature was 58 C. The PET hydrolysis in series [2] (setting [13]) was less than 3; in series [2] (setting [14]), 8; in series [2] (setting [15]), 24; in series [2] (substrate: cryPow, 40 °C, pH 8.5) it was 32; in series [2] (setting [17]), less than 3; in series [2] (setting [18]), less than 3. Also, the PET hydrolysis in series [2] (setting [19]) was less than 3; in series [2] (substrate: cryPow, 60 °C, pH 8.5), 3. Moreover, the “purified protein yield per well” value in series [3] worked out at 89 µg.
